Source: patent US20210292393A1 (published 2021)
Changes are numbered by the printed parent chain.

What was measured:
[1] = target: SARS-CoV-2 full length spike protein (wild-type), conjugated to optically encoded beads (SARS-CoV-2, UniProt P0DTC2 14-1208)
[2] = target: SARS-CoV-2 full length spike protein (wild type) (SARS-CoV-2, UniProt P0DTC2 14-1208)

B1: antibody 523 (antibody, V domains shown)
VH: EVQLVESGGVSVQPGGSLRLSCAASGFSFNTYDMHWVRQGTGKGLEWVSGIGTAGDTYYSDSVKGRCTISRDNAKNSLHLLVKSVRAADTAVYYCARGVGGIIDYWGQGTLVTVSS
VL: NFVLSQPHSVSESPGKTVTISCTGNSGSIATKYVQWFQQRPGSAPTTVIYEDNQRPSGVPDRFSGSSDSSSNSASLTISGLKTEDEAHYYCQSYHNRRWVFGGGTKLTVL
median fluorescence fold over isotype [1]: 30.8 fold over isotype

B2: antibody 522 (antibody, V domains shown)
VH: EVQLVESGGGLVQPGGSLRLSCAASGFNFSSYSMNWVRQAPGKGLEWVSYISSSSSTIYYADSVKGRFTISRDNAKNSLYLQMNSLRDEDTAVYYCARGPEWDIVVVQAENWFDPWGQGTLVTVSS
VL: SYELTQPPSVSVSPGQTARITCSGDALPKQYVYWYQQKPGQAPVLVIYKDSERPSGIPERFSGSSSGTTVTLTISGVQAEDEADYYCQSADSSGTYRGVFGGGTKLTVL
median fluorescence fold over isotype [1]: 433 fold over isotype

B3: antibody 320 (antibody, V domains shown)
VH: QVQLVQSGAEVKKPGASVKVSCKASGYTFTSYGISWVRQAPGQGLEWMGWISAYNGNTNYAQKLQGRVTMTTDTSTRTAYMELRSLRSDDTAVYYCARVGCYYDSSGYSCAENFQHWGQGTLVTVSS
VL: QSVLTQPPSVSGAPGQRVTISCTGSSSNIGAGYDVHWYQQLPGTAPKLLIYGNSNRPSGVPDRFSGSKSGTSASLAITGLQAEDEADYYCQSYDSSLSALFGGGTKLTVL
median fluorescence intensity fold over isotype [2]: 1200 fold over isotype control

B4: antibody 331 (antibody, V domains shown)
V domain 1: QITLKESGPTLVKPTETLTLTCSFSGFSLTKTGEAAGWIRQAPGRALEWVTVIFWDDDKRYSPSLQNRISVTKDTSKNQVVLRMTNVARFDTGTYFCWAMGGPGKEYFGQGTLVAVSS
V domain 2: QSVLTQPPSVSGAPGQRVTISCTGTSSSIGPYSDVHWYQHVSGKAPRLLIFGNSNRPSGVPDRFSGSKSGTSASLVIAGLQAEDEADYYCQSYDSSLGEIYVFGTGTTVTVL
median fluorescence intensity fold over isotype [2]: 850 fold over isotype control

B5: antibody 339 (antibody, V domains shown)
V domain 1: B4 V domain 1 with K31R, N67S, I69L, S70T, R83T, G93A, L113Q
V domain 2: B4 V domain 2
median fluorescence intensity fold over isotype [2]: 874 fold over isotype control

B6: antibody 317 (antibody, V domains shown)
VH: QVQLVQSGAEVKKPGASVKVSCKVSGYTLTELSMHWVRQAPGKGLEWMGGFDPEDGETIYAQKFQGRVTMTEDTSTDTAYMELSSLRSEDTAVYYCASSPAAAGTSQYYYYYGMDVWGQGTTVTVSS
VL: not shown
median fluorescence intensity fold over isotype [2]: 890 fold over isotype control

B7: antibody 345 (antibody, V domains shown)
VH: QVQLQESGPGLVKPSQTLSLTCTVSGGSISSGDYYWSWIRQPPGKGLEWIGYIYYSGSTYYNPSLKSRVTISVDTSKNQFSLKLSSVTAADTAVYYCARVGMVDNWNFEGNWFDPWGQGTLVTVSS
VL: QSALTQPRSVSGSPGQSVTISCTGTSSDVGGYNYVSWYQQHPGKAPKLMIYDVSKRPSGVPDRFSGSKSGNTASLTISGLQAEDEADYYCCSYAGSVVFGGGTKLTVL
median fluorescence intensity fold over isotype [2]: 562 fold over isotype control

B8: antibody 363 (antibody, V domains shown)
VH: EVQLLESGGGLVQPGGSLRLSCAASGFTFSTYAMSWVRQAPGKGLEWVSAISGSGGSTYYADSVKGRFTISRDNSKNTLYLQMNSLRAEDTAVYYCASGYSPDYWGQGTLVTVSS
VL: not shown
median fluorescence intensity fold over isotype [2]: 1030 fold over isotype control

B9: antibody 344 (antibody, V domains shown)
VH: QVQLVESGGGVVQPGRSLRLSCAASGFTFSSYAMHWVRQAPGKGLEWMAVISYDGSNKYYADSVKGRFTISRDNSKNTLYLQMNSLRAEDTAVYFCAKGYSGSYYEPFDYWGQGTLVTVSS
VL: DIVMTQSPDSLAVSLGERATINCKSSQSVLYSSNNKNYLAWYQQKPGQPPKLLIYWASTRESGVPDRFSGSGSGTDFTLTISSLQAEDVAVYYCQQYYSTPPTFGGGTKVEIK
median fluorescence intensity fold over isotype [2]: 404 fold over isotype control

B10: antibody 348 (antibody, V domains shown)
VH: QVQLVQSGSELKKPGASVKVSCKASGYTFTSYAMNWVRQAPGQGLEWMGWINTNTGNPTYAQGFTGRFVFSLDTSVSTAYLQISSLKAEDTAVYYCARDHELPNTSSWFGHFEYWGQGTLVTVSS
VL: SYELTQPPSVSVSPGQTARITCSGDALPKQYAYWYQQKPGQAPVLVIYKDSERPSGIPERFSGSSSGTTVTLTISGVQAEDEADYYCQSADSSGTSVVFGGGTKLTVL
median fluorescence intensity fold over isotype [2]: 869 fold over isotype control

B11: antibody 504 (antibody, V domains shown)
VH: QVQLVESGGGVVQPGRSLRLSCAASGFTFSSYGMHWVRQAPGKGLEWVAVISYDGSNKYYADSVKGRFTISRDNSKNTLYLQMNSLRAEDTAVYYCAKGGGGGYCSGGSCYSHYFDYWGQGTLVTVSS
VL: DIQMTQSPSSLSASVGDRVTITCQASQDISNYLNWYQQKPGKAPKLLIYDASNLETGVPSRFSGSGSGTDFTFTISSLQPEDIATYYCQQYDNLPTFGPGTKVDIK
median fluorescence fold over isotype [1]: 709 fold over isotype

B12: antibody 327 (antibody, V domains shown)
VH: QVQLVESGGGVVQPGRSLRLSCAASGFNLSNYAMHWVRQASGKGLEWVSLISYDGSIKYYTDSVKGRFTVSGDNSKNTLFLQMNSLRPDDSALYYCVRGGVSGPNSFDMWGQGTTVTVSS
VL: DVVMTQSPLSLPVTLGQPASISCRSSQSLVYSDGNTYVNWFQQRPGQSPRRLIYQVSIRASGVPDRFSGSGSGTDFALKISRVEAEDVGIYYCMQGTHWPVTFGQGTKVEIK
median fluorescence intensity fold over isotype [2]: 413 fold over isotype control

B13: antibody 509 (antibody, V domains shown)
VH: B12 VH with N31S, P88A, M109L
VL: B12 VL with Q55K, I90V
median fluorescence fold over isotype [1]: 496 fold over isotype

B14: antibody 517 (antibody, V domains shown)
VH: B12 VH with P88A
VL: B12 VL with I90V
median fluorescence fold over isotype [1]: 434 fold over isotype

B15: antibody 326 (antibody, V domains shown)
VH: QITLKESGPTLVKPTQTLTLTCTFSGFSLNTSGVGVGWIRQPPGKALEWLSLIFWNDDKRYSPSLRSRLTITKDTSKNQVVLTMTNMDPVDTATYFCAHRNSGWSLKFDSWGQGSLVTVSA
VL: DIQMTQSPSSVSASVGDRVTITCRARQGISSWLVWYQQKPGKAPKLLIFGASSLQSGVPSRFNASGTGTEFTLTISSLQPEDFATYYCQQADSFPITFGQGTRLEIK
median fluorescence intensity fold over isotype [2]: 193 fold over isotype control

B16: antibody 340 (antibody, V domains shown)
VH: QVQLVQSGAEVKKPGASVKVSCKASGYTFTSYDINWVRQATGQGLEWMGWMNPNSGNTGYAQKFQGRVTMTRNTSISTAYMELSSLRSEDTAVYYCARGRYCTGGVCWGDWYFDLWGRGTLVTVSS
VL: QSVLTQPPSVSGAPGQRVTISCTGSSSNIGAGYDVHWYQQLPGTAPKFLIYGNSNRPSGVPDRFSGSKSGTSASLAITGLQAEDEADYYCQSYDSSLSGPVFGGGTKLTVL
median fluorescence intensity fold over isotype [2]: 547 fold over isotype control

B17: antibody 329 (antibody, V domains shown)
VH: EVQLVESGGGLVQPGGSLRLSCAASGFTFSSYWMHWVRQAPGKGLVWVSRINSDGSSTSYADSVKGRFTISRDNAKNTLYLQMNSLRAEDTAVYYCAREGIVATITLDYWGQGTLVTVSS
VL: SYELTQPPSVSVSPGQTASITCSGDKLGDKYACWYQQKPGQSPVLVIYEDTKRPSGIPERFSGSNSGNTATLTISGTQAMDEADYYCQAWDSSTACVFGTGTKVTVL
median fluorescence intensity fold over isotype [2]: 497 fold over isotype control

B18: antibody 323 (antibody, V domains shown)
VH: QVQLVQSGAEVKKPGASVKVSCKVSGYTLTELSMHWVRQAPGKGLEWMGGFDPEDGETIYAQKFQGRVTMTEDTSTDTAYMELSSLRSEDTAVYYCATSTIFAPGGWFDPWGQGTLVTVSS
VL: QSALTQPASVSGSPGQSITISCTGTSSDVGSYNLVSWYQQHPGKAPKLMIYEVSKRPSGVSNRFSGSKSGNTASLTISGLQAEDEADYYCCSYAGSTHYVFGTGTKVTVL
median fluorescence intensity fold over isotype [2]: 994 fold over isotype control
